We go through four molecules from patent publication US20080095767A1 (PEPTECH, published 2008).

The target of assay [1] is T1, human TNF-α (Peprotech Cat No: 300-01A) (human, UniProt P01375 77-233). Description: cell-based or functional assay.
Assay [2] addresses T1, human TNF-α (Peprotech Cat No: 300-01A). Description: ELISA, TNF-α coated on the plate. As to the method: TNF-α (Peprotech Cat No: 300-01A) was diluted to 1 μg/mL in carbonate coating buffer ([…] pH 9.6). 100 μl of this solution was added to each well of a 96 well plate and incubated at 4° C. overnight in a humidified container. The plate was then washed three times with wash buffer (0.01M PBS pH 7.2, 0.05% Tween-20) and then three times with 0.01M PBS pH 7.2. The wells were then blocked by adding 200 μL blocking buffer (1% w/v BSA in 0.01M PBS pH 7.2) to each well and incubating the plate at 25° C., in a humidified container, for 1 hour. The antibody was diluted in antibody diluent (1% w/v BSA, 0.05% Tween-20 in 0.01M PBS pH 7.2) sufficient to generate a titration curve covering the ranges 6.00 μg/mL to 0.0578 ng/mL. The wells were incubated with the antibody for 1 hour at 25° C. The plate was then washed as previously described. 100 μL of Anti-IgG H+L antibody HRP conjugate (Zymed, Cat No: 81-71200) at 1:2000 in antibody diluent was used to detect bound AB197 and AB103. 100 μL of Anti-murine immunoglobulin antibody HRP conjugate (Dako, Cat No: P0260) at 1:2000 in antibody diluent was used to detect bound AB164. Wells with antibody diluent only were used to measure the background absorbance. After incubation at 25° C., in a humidified container, for 1 hour the plate was washed again as previously described. 100 μL TMB substrate solution (Zymed, Cat No: 00-2023) was added to each well and the colour allowed to develop for 4 min. 100 μL of 1M HCl was added to terminate the colour development reaction and absorbance was determined at 450 nm (ref. 620 nm)

Assay [3] has as its target T2, rat MOG (myelin-oligodendrocyte glycoprotein) (rat, UniProt Q63345 28-245).
T2 construct: mature; Endogenous protein in cleared rat spinal cord lysate, run on SDS-PAGE and blotted; It was identified only by its size
T2 sequence (looked up): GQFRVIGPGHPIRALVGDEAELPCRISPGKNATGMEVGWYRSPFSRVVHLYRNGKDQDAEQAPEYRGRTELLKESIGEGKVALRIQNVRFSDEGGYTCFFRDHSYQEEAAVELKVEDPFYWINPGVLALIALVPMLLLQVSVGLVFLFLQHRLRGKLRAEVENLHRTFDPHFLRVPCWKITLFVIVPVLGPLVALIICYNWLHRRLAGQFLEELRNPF
The assay can be described thus: Western blot on rat spinal cord lysate. As to the method:
The ability of AB138 to retain binding to the antigen of M26, rat MOG (myelin-oligodendrocyte glycoprotein), was investigated by Western Blot. 130 mg of rat spinal cord (IMVS, Australia) was homogenized in 1.8 ml CelLytic M Cell Lysis Reagent (SIGMA, C2978) and incubated for 30 minutes at 4° C. Further homogenization was performed by drawing the lysate through a 27 g ½ needle several times followed by centrifugation at 4° C. and 13000 g for 30 minutes. The pellet and supernatant was diluted into SDS-PAGE sample buffer (125 mM Tris-HCl pH 6.8, 5% SDS, 0.25% bromophenol blue, 25% glycerol). Along with this 200 μl CHOK1SV cells at 1×10⁶ viable cells per ml were spun down at 13000×g at 4° C. for 1 minute and resuspended in 200 μl CelLytic M Cell Lysis Reagent (SIGMA). Following centrifugation at 4° C. and 13000×g for 30 minutes the supernatant was mixed with the appropriate amount of SDS-PAGE sample buffer. All samples, along with a sample of molecular weight markers, were run on a 4-20% Novex pre-cast gel (Invitrogen, Australia) for 2 hours at 120V. Proteins were then transferred to PVDF (BioRad, Australia) using a western blot apparatus in 1×Tris-Glycine Buffer with 20% methanol (BioRad, Cat 161+-0771) at 4° C. at 250 mA for 2 hours. […] Following washing, bound antibody was detected using the ECL Western Blotting Analysis System, (Amersham Biosciences Cat: RPN2109). […]

T1 sequence (P01375 77-233 limits assumed): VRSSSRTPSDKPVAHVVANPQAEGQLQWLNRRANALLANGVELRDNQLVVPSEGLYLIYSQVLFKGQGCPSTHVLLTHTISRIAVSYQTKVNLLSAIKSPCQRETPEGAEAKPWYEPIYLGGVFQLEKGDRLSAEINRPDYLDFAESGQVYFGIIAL

B1: engineered monoclonal antibody AB197 (antibody, V domains shown)
VH: QVQLVQSGAELKKPGASVKVSCKASGYAFTNYLIEWVRQPPGQGLEWIGVINPGSGSTNYNEKFKDKATLTADKSSSTAYMELSSLRPEDTAVYYCARDYGYDGMDYWGQGTLVTVS
VL: ELVMTQSPATLSLSPGERATVSCRASKSVSTSGYSYMHWYQQKPGQAPRLLIYLASNLESGVPARFSGSRSGTDFTLTISSLEPEDFAVYYCQHSRELPLTFGQGTKLEIKR
Usually EC50 stands for the midpoint of the concentration-response curve. Low readings indicate higher potency in that assay, high ones lower potency in that assay. As for B1, the “EC-50 (µg/ml), neutralisation of TNF-α-induced L-929 cell cytotoxicity” value (“EC-50 (µg/ml), neutralisation” below) in assay [1] came to 0.41 µg/mL. Further, the EC50 in assay [2] stood at 0.68 µg/mL.

B2: murine monoclonal antibody AB164 (antibody, V domains shown)
VH: QVQLQQSGAELVRPGTSVKVSCKASGYAFTNYLIEWVKQRPGQGLEWIGVINPGSGSTNYNEKFKDKATLTADKSSSTAYMQLSSLTSDDSAVYFCVRDYGYDGMDYWGQGTSVTVS
VL: DIVLTQSPASLAVSLGQRATISCRASKSVSTSGYSYMHWYQQKPGQPPKLLIYLASNLESGVPARFSGSGSGTDFTLNIHPVEEEDAATYYCQHSRELPLTFGAGTKLELKR
notes: Fully murine antibody from a hybridoma
Take B2: the “EC-50 (µg/ml), neutralisation” value in assay [1] amounted to 0.1 µg/mL. This molecule came in with an EC50 in assay [2] of 0.45 µg/mL.

B3: AB103 (anti-TNFα murine variable region-human constant region chimera) (antibody, V domains shown)
VH: QVQLQQSGAELVRPGTSVKVSCKASGYAFTNYLIEWVKQRPGQGLEWIGVINPGSGSTNYNEKFKDKATLTADKSSSTAYMQLSSLTSDDSAVYFCVRDYGYDGMDYWGQGTSVTVSS
VL: B2 VL
On to B3, for which the “EC-50 (µg/ml), neutralisation” value in assay [1] stood at 0.1 µg/mL. In assay [2], this molecule gave an EC50 of 0.19 µg/mL.

B4: AB138 (MOG specific marmoset derived variable region-human constant region chimera) (antibody, human IgG1, kappa, V domains shown)
VH: QVQLVQSGAEVKKPGASVKVSCKASGYTFTSYAISWARQPPGQGLEWMGAFDPEYGSTTYAQKFQGRVTMTADTSTSTAYMELSSLRPEDTAVYYCARDVNFGNYFDYWGQGTLVTVSS
VL: ELVMTQSPATLSLSPGERATVSCRAGQSVSYYLAWYQQKPGQAPRLLIYGASTRATGIPARFSGSRSGTDFTLTISSLEPEDFAVYYCQQYSSWPPTFGQGTKLEIKR
notes: Chimeric antibody with the variable regions of the marmoset anti-MOG antibody (M26) and human IgG1/kappa constant regions
B4: in assay [3], the binding result was “binds”.
